The supplement of paper PMC9170038

System: MS2 coat protein
Assay: apparent KD of MS2 coat protein; higher = weaker reporter binding
Details: Eterna round: R107; input ligand: theophylline 20 uM
Procedure, shortened: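 For every design, apparent KD is the median of normalised binding-curve fits from its clusters. The RNA switches were transcribed on-chip from Illumina sequencing clusters and titrated with SNAP-549-labelled MS2 coat protein (twofold steps, 0.7 or 1.5 nM to 3 µM; 0.8–1.5 h to 10–20 min per step). Titrations used 100 mM Tris-HCl pH 7.5, 80 mM KCl, 4 mM MgCl2, without or with constant ligand.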

“ACGAACGAUAGUGAUACCAGACGAACAUGAGGAUCACCCAUGUUAUACACAUGGUUUAUUGUCCCUUGGCAGCACUUUAAGUUCG [JR_ExcTheophyB_Sub006]” and “AAUAACAUGAGGAUCACCCAUGUAAAAGAUACCAGAGUGAUGAUCCUCCCUUGGCAGCUUAAACGCUAUUGGAAACAAUAGCGAA [Mat - Same State Theophlline A - Mod of Eli - D3]” are within 1.5-fold of each other in “apparent KD of MS2 coat protein” value: 139 nM for the first, 163 nM for the second.

Going from “AGCGACAUGCAUGAUACCAGCUACAUGAGGAUCACCCAUGUACGUCAGUAAUGACUGUGUAGCCCUUGGCAGCAUAGAGCAUGUU [Exclusion - Theophylline B (Freestyle 15)]” to “AUGCACCUCGUCCAGGCAAUCUUUAGUGAUACCAGCUAACUCCUUGGCCCUUGGCAGCACAUGAGGAUCACCCAUGUGCGACAUC [Tidile]”, the “apparent KD of MS2 coat protein” value falls from 29.3 nM to 14.9 nM (2-fold).

First: UGUAACAUGAGGAUCACCCAUGUGAGUGAUACCAGACUAGUAUUAGUCCCUUGGCAGCACGUUGGGCGAGUGUAUAGUCUAUGCG [Same State - Theophylline A (Freestyle 14)]
Second: AUGGAGACCUCGGCCGCCACUCUCCAUGAGGAUCUCCCAUGUAACAUGAGGAUCACCCAUGUGCUGAGGACCGGGAGGUCCUGAA [Same State Tryptophan B GF 18]
The “apparent KD of MS2 coat protein” value of the first is 7.2-fold higher: 113 nM for the first, 15.8 nM for the second.

“GGCUAGUGCAUCGAUACCAGCUACAUGAGGAUCACCCAUGUAGGAAGGGUGGUACUCGAUAGCCCUUGGCAGCGAACACCUCCGG [Quoran]” and “UGUAUGGACUGAAGGAGCGGGAAAUAAACUUGAGGAUCACCCAGGUAAUAGGCGAAAGCCACCCAGGUAGGUCGCAGUCCAUACU” are within 1.5-fold of each other in “apparent KD of MS2 coat protein” value: 35.7 nM for the first, 38.5 nM for the second.

Going from “UCGUUUUAGUCGGCCGCCACUGUGAGCAUGGUUAACAUGAGGAUCACCCAUGUCCCGUACUAUAACAGGACCGGGACGUAGUUGC [#09 Same State - Tryptophan B]” to “AUAUGAUCAUACGAUACCAGAAAUGGUAUUCCUUUAUUUCUUACAUGAGGAUCACCCAUGUUCCCUUGGCAGCGUAUGAUCAUAU [ETHB #3]”, the “apparent KD of MS2 coat protein” value rises from 109 nM to 327 nM (3-fold).

First: AAUCCAAGAAAUGAUACCAGUCCCACUCAGGACAUGAGGAUCACCCAUGUAAUACAGGGAGACCCUUGGCAGCAUCGAAUAAACA [theeternabot_sameState_MS2_Theo_B_33]
Second: AAUAACAUGAGGAUCACCCAUGUAAAAGAUACCAGAGUGAUGAUCCUCCCUUGGCAGCUUAAUAACGCUAUCGGAAACGAUAGCG [Mat - Same State Theophlline A - Mod of Eli - D8]
The “apparent KD of MS2 coat protein” value of the first is 2.8-fold higher: 479 nM for the first, 170 nM for the second.

Compared with “ACAUGAGGAUCACCCAUGUGAAGCAGGGUACGAGGACCGGUACGGCCGCCACUCGAGGAUUAUGCCGAGUGAAUGGCAACGAUGU [whbob_Ex_trypto A_2s19]”, “GCAUCCUAGUCGGCCGCCACUACAACAUGAGGAUCACCCAUGUGUGGGAGAUCCGUCCUACGAAGUAGGACCGGGACUAGGAUGC [(T1)-(M1)-(M2)-(T)''-(M)'-(T)'-(T2)_Design5_2/18/17]” is 15-fold higher in “apparent KD of MS2 coat protein” value: 22.7 nM for the first, 337 nM for the second.

“AUUGUCAAGUCGGCCGCCACUUCUGCCAUGGCCACCAGUCGACAUGAGGAUCACCCAUGUCUCUUAAGGACCGGGACUUUCAAUU [theeternabot_sameState_MS2_Trp_B_6]” and “GGGUGGUAGGCGGCCGCCACUGAUUUUUAUUUAUAGAUGACAUGAGGAUCACCCAUGUAGAUAUGCAGGACCGGGCCUGUUGUUU [aaaO]” are within 1.5-fold of each other in “apparent KD of MS2 coat protein” value: 16 nM for the first, 22.3 nM for the second.

First: CGCACAUGAGGAUCACCCAUGUGAGGGCGUCGAGGACCGGUACGGCCGCCACUCGCAGGACAUGAGGAUCACCCAUGUGCCGCCG [SSTA DOUBLE!!! :-D #4]
Second: ACAUGAGGAUCACCCAUGUAAUAAUCAGAAGGAGCGUGGAAUAACACAGGUAGGUCGCUGAUGUUUGGUUAAAAUUAUUCGUGAA [JR_ExcArginiA_Sub001]
The “apparent KD of MS2 coat protein” value of the first is 7.9-fold higher: 131 nM for the first, 16.6 nM for the second.

Same assay, conditions: Eterna round: R107; input ligand: theophylline 2 mM

Going from “UAGUUGUAGUCGGCCGCCACUGUGAGCAUGGUUAACAUGAGGAUCACCCAUGUCCCGUACUAUAACAGGACCGGGACGUAGUUGC [#10 Same State - Tryptophan B]” to “GCUAGGUCUACGGCCGCCACUAGACGUGGGUUAAACAUGAGGAUCACCCAUGUGCUACAGGCGCAUAGGACCGGGUAGACCUAGC [SSTB NP+V+V2 #9 +-Same Structure]”, the “apparent KD of MS2 coat protein” value rises from 134 nM to 696 nM (5.2-fold).

First: GGGCAAGAGGGAAGGAGCGUCAGCUGAGUCACAUGAGGAUCACCCAUGUAGCACAUAGUGUGACAGGUAGGUCGCCCUCUGCCCU [SS-ArgB5]
Second: UUCGUUUACGGAAGGAGCGACGGACAUCGGUGAUCUAUGCACAUGAGGAUCACCCAUGUACGUCAGGUAGGUCGCCGUUAAGAGU [XArg-B28]
The “apparent KD of MS2 coat protein” value of the first is 16-fold lower: 11.4 nM for the first, 184 nM for the second.

Going from “GGUCUCUGGAGCGAUACCAGCUUAAGUGUACUGGCCAGGUACAUGAGGAUCACCCAUGUAAGCCCUUGGCAGCGCUCCAGAGACC [#1 Exclusion - Theophylline B Attempt #14 (HarryS)]” to “AAGGUGAUCCGUGAUACCAGCUCAACAUGAGGAUCACCCAUGUAACGGACGAAAGUCCGGAGCCCUUGGCAGCACGGUUGCCAAG [(M)'-(Theo1)-(Ms2)-(Theo2)-(M'')-(T2)'_Design1b]”, the “apparent KD of MS2 coat protein” value falls from 41.5 nM to 12.5 nM (3.3-fold).

Going from “GAGGGUGAAUCUCUAGUCCGUUUGACGGAUACCAGCGAGAGGUAUCGCCCUUGGCAGCCGACGACAUGAGGAUCACCCAUGUUAA [#07 Exclusion-TheophyllineA]” to “ACAUUAGCCACGGCCGCCACUGCUUUAUGAUUAUAAGGAUUAAUGAACAUGAGGAUCACCCAUGUCAGGACCGGGUGCCUACCAU [SSTryp B #4]”, the “apparent KD of MS2 coat protein” value rises from 22 nM to 39 nM (1.8-fold).

First: GAUAUGGAAACAUGUCAGAUCCUUACCGGUCGAGGACCGGUACGGCCGCCACUCGAAAACGAUGUACAUGAGGAUCACCCAUGUA [Ex Tryptophan A 19]
Second: GCUUGCUUGUAAGGUUCUGUCCGGCGUCGUCGAGGACCGGUACGGCCGCCACUCGCGCGUUUACAUGAGGAUCACCCAUGUCAUG [theeternabot_exclusion_MS2_Trp_A_49]
The “apparent KD of MS2 coat protein” value of the first is 2.4-fold lower: 14.7 nM for the first, 35 nM for the second.

Compared with “AAUAAUAAGGCGGCCGCCACUAAACAUGAGGAUCACCCAUGUCUCGAGCGCAUACAUAAGGGAUGUAGGACCGGGCCAAUAAUAA [Exclusion - Tryptophan B (Freestyle 1)]”, “AGGUGGCGCGGAAGGAGCGAGUUUGCCUAUUACAUGAGGAUCACCCAUGUGGGUAAUGGGACUCAGGUAGGUCGCCGUUGUCGCU [Same State Arginine B GF 27]” is 3-fold higher in “apparent KD of MS2 coat protein” value: 23 nM for the first, 68.8 nM for the second.

First: AGCAACAAGUCGGCCGCCACUCAUUUAACAUGAGGAUCACCCAUGUGAAUAACAUGGUUGUAAUAGAGGACCGGGACAGUUGCAU [JR_SSTryptoB_Sub016]
Second: AGCACUGUGGCGGCCGCCACUACAUAUAGGGUGGUCAGGCCCAUAAUACAUGAGGAUCACCCAUGUAGGACCGGGCCUCAGUGCA [Omei Trp Exc B A v13]
The “apparent KD of MS2 coat protein” value of the first is 24-fold higher: 401 nM for the first, 16.5 nM for the second.

With “GCUGUGAAGUCGGCCGCCACUGGUUAGUUUAACCUCAUGUAACAUGAGGAUCACCCAUGUAAUGUCAGGACCGGGACAACAGCAA [JR_ExcTryptoB_Sub016]” the “apparent KD of MS2 coat protein” value was 289 nM.
